Reference: patent publication US20230272064A1 (ACROIMMUNE BIOTECH, published 2023)
Several values for one entry are separate records, joined by “and”; a condition that tells them apart may be missing. Equal values may be shown once.

What was measured:
PD-1 Fc fusion protein [1] = target: T1, PD-1 Fc fusion protein (Homo sapiens (Human), UniProt Q15116 25-170); assay: ELISA, antigen coated at 2 µg/mL
CD28 Fc fusion protein [2] = target: T2, CD28 Fc fusion protein (Homo sapiens (Human), UniProt P10747 19-152); assay: ELISA, antigen coated at 2 µg/mL
T2 sequence (P10747 19-152 limits assumed): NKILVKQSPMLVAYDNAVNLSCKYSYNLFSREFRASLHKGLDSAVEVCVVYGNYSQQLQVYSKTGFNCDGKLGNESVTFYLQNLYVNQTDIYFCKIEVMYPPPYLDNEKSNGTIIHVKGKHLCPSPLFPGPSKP

B7-1 Fc fusion protein [3] = target: T3, B7-1 Fc fusion protein (Homo sapiens (Human), UniProt P33681 35-242); assay: ELISA, antigen coated at 2 µg/mL
T3 sequence: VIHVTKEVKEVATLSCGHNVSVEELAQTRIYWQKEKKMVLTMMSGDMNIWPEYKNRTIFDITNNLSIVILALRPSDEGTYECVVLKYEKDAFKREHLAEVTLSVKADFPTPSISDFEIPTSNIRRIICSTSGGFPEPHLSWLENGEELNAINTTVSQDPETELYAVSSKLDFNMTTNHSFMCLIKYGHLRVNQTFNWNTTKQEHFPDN

BTLA Fc fusion protein [4] = target: T4, BTLA Fc fusion protein (Homo sapiens (Human), UniProt Q7Z6A9 31-157); assay: ELISA, antigen coated at 2 µg/mL
T4 sequence: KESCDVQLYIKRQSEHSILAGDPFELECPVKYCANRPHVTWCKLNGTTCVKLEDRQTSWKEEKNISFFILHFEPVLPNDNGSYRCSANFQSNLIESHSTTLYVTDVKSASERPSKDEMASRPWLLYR

Sirpa Fc fusion protein = assay: ELISA, antigen coated at 2 µg/mL, mAb at 1 µg/mL
Sequence of Sirpa Fc fusion protein (P78324 whole entry, the tested form may be a part): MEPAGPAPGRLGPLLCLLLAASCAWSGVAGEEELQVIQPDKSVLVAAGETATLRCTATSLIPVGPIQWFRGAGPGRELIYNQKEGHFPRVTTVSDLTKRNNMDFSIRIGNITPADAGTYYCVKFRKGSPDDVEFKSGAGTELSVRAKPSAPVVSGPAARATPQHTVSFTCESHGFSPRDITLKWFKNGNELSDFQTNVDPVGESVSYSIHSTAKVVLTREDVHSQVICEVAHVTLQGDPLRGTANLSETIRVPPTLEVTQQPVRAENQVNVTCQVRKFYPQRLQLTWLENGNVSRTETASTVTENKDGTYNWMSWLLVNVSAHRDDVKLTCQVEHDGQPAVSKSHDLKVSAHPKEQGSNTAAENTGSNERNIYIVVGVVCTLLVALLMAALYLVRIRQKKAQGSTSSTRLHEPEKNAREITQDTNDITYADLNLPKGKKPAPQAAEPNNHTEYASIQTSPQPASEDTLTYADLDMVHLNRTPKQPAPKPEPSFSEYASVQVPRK

[5] = target: PV1- (coated antigen of Table 2); assay: ELISA, antigen coated at 2 µg/mL, mAb at 1 µg/mL
PD-1 Fc fusion protein [6] = target: T1, PD-1 Fc fusion protein; assay: ELISA, antigen coated at 2 µg/mL, mAb at 1 µg/mL
[7] = target: PD1H (PD2) Fc fusion protein; assay: ELISA, antigen coated at 2 µg/mL, mAb at 1 µg/mL
PD-L1 Fc fusion protein = assay: ELISA, antigen coated at 2 µg/mL, mAb at 1 µg/mL
Sequence of PD-L1 Fc fusion protein (Q9NZQ7 whole entry, the tested form may be a part): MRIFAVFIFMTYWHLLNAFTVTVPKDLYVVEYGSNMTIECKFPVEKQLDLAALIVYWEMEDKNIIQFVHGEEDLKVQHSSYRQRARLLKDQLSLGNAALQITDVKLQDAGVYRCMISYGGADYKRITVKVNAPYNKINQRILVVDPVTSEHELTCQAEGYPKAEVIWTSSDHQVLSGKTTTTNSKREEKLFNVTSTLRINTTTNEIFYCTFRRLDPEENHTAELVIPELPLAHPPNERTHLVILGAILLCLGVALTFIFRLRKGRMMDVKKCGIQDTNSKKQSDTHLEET

PD-L2 Fc fusion protein = target: T5, PD-L2 Fc fusion protein; assay: ELISA, antigen coated at 2 µg/mL, mAb at 1 µg/mL
T5 sequence (Q9BQ51 whole entry, species assumed, looked up): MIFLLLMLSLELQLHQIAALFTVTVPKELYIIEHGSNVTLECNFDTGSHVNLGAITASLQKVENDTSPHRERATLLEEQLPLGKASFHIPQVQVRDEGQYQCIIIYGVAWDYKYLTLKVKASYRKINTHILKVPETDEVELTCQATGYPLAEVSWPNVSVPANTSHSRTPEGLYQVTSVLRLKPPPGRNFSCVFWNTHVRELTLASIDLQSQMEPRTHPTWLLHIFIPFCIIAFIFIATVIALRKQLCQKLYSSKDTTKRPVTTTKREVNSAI

CD3 Fc fusion protein = assay: ELISA, antigen coated at 2 µg/mL, mAb at 1 µg/mL
CD28 Fc fusion protein [8] = target: T2, CD28 Fc fusion protein; assay: ELISA, antigen coated at 2 µg/mL, mAb at 1 µg/mL
CTLA4 Fc fusion protein = assay: ELISA, antigen coated at 2 µg/mL, mAb at 1 µg/mL
Sequence of CTLA4 Fc fusion protein (P16410 36-161): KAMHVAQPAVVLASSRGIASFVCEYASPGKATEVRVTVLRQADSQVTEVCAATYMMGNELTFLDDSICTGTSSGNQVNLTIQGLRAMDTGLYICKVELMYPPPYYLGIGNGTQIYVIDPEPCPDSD

B7-1 Fc fusion protein [9] = target: T3, B7-1 Fc fusion protein; assay: ELISA, antigen coated at 2 µg/mL, mAb at 1 µg/mL
BTLA Fc fusion protein [10] = target: T4, BTLA Fc fusion protein; assay: ELISA, antigen coated at 2 µg/mL, mAb at 1 µg/mL
[11] = target: T6, recombinant human TIGIT extracellular membrane protein with a C-terminal histidine tag (human, UniProt Q495A1 22-141); assay: ELISA, antigen coated at 2 µg/mL, mAb at 1 µg/mL
T6 construct: extracellular domain; Bought protein; two different product numbers are printed for it; also called TIGIT-His; TIGIT-his
T6 sequence (looked up): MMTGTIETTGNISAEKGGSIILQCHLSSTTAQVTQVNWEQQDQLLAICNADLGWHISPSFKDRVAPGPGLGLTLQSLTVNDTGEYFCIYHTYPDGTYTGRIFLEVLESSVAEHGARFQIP

[12] = target: T6, recombinant human TIGIT extracellular …; assay: competitive ELISA, TIGIT-His coated, competitor biotin-CD155-Fc
[13] = target: T6, recombinant human TIGIT extracellular …; assay: competitive ELISA, TIGIT-His coated, competitor biotin-CD155-Fc; average of samples #2 and #4
[14] = target: T7, mouse TIGIT on C57/B6 wild-type mouse lymphocytes (mouse, UniProt P86176 29-249); assay: flow cytometry on peripheral blood lymphocytes of a wild-type C57 mouse, 33D2 hybridoma supernatant, FITC rabbit anti-mouse IgG, PE anti-mouse CD3e
T7 construct: whole, on cells
T7 sequence (looked up): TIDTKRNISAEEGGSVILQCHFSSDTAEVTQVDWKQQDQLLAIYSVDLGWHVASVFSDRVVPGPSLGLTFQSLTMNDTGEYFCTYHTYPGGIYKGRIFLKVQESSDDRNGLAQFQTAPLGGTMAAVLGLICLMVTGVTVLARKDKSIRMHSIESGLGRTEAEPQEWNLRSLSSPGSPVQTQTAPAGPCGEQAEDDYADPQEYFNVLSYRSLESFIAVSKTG

[15] = target: T6, recombinant human TIGIT extracellular …; assay: BLI (Fortebio-OCTET RED96), mAb captured on FAB2G sensor, TIGIT-His monomer as analyte, global fit, monovalent binding

T1 sequence (Q15116 25-170 limits assumed): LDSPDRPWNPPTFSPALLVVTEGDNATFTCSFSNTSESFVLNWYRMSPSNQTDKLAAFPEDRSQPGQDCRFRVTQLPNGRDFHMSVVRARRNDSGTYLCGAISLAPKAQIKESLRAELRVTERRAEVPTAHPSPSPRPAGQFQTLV

B1: murine anti-human TIGIT monoclonal antibody 33D2 (antibody, V domains shown)
VH: EVQLQQSGPDLVKPGASVKISCKASGYSFTGYYMHWVKQSHGKSLEWIGRVNPNNGDTRYNQKFKGKAILTVDKSSSTAYMELRSLTSEDSAVYYCAREGDYDERFAYWGQGTLVTVSA
VL: DIVMTQSHKFMSTSLGDRVSITCKASQDVGSTVAWYQQKPGQSPKLLIYWASTRHTGVPDRFTGSGSGTDFTLTITNVQSEDLADYFCQQYTSFPYTFGGGTKLEIK
notes: Mouse hybridoma antibody, used as purified protein (Protein G) or as hybridoma supernatant; also called m33D2; 33D2 mAb
binding result (PD-1 Fc fusion protein [1]): no binding (tested: 1 µg/mL) | binding result (CD28 Fc fusion protein [2]): no binding (tested: 1 µg/mL) | binding result (B7-1 Fc fusion protein [3]): no binding (tested: 1 µg/mL) | binding result (BTLA Fc fusion protein [4]): no binding (tested: 1 µg/mL) | OD at 495 nm (Sirpa Fc fusion protein): 0.01 OD | OD at 495 nm [5]: 0.05 OD | OD at 495 nm (PD-1 Fc fusion protein [6]): 0.01 OD | OD at 495 nm [7]: 0.01 OD | OD at 495 nm (PD-L1 Fc fusion protein): 0 OD | OD at 495 nm (PD-L2 Fc fusion protein): 0.04 OD | OD at 495 nm (CD3 Fc fusion protein): 0.01 OD | OD at 495 nm (CD28 Fc fusion protein [8]): 0.03 OD | OD at 495 nm (CTLA4 Fc fusion protein): 0.02 OD | OD at 495 nm (B7-1 Fc fusion protein [9]): 0.03 OD | OD at 495 nm (BTLA Fc fusion protein [10]): 0.01 OD | OD at 495 nm [11]: 1.01 OD | IC50 [12]: 0.135 µg/mL and 0.9 nM and 0.125 µg/mL and 0.833 nM | IC50 [13]: 0.13 µg/mL and 0.867 nM | binding result [14]: no binding

B2: humanized antibody h33D2 (antibody, V domains shown)
VH: QVQLVQSGAEVKKPGASVKVSCKASGYSFTGYYMHWVRQAPGQGLEWMGRVNPNNGDTRYNQKFKGRVTMTRDTSISTAYMELSRLRSDDTVVYYCAREGDYDERFAYWGQGTLVTVSA
VL: DIQLTQSPSFLSASVGDRVTITCKASQDVGSTVAWYQQKPGKAPKLLIYWASTRHTGVPSRFSGSGSGTEFTLTISSLQPEDFATYYCQQYTSFPYTFGGGTKLEIK
notes: IgG4-kappa; human IgG4 heavy chain constant region with S228P in the hinge and human kappa light chain constant region; also called humanized 33D2 mAb; h33D2-light chain and h33D2-heave chain
Kd [15]: 0.843 nM | koff [15]: 0.00023 s⁻¹ | kon [15]: 273000 M⁻¹ s⁻¹
